B1: HDV Ribozyme (parent)
chain: GGCCGGCAUGGUCCCAGCCUCCUCGCUGGCGCCGGCUGGGCAACAUUCCGAGGGGACCGUCCCCUCGGUAAUGGCGAAUGGGACCCA

Variants of: B1
Assay: self-cleavage, relative activity (ratio to wild type); higher = more cleavage; co-transcriptional

Variant	self-cleavage
G17C U46A	0.237
U12A C84A	0.506
A51G A77U	0.682
G28U G52A	0.0733
C62G C64G	0.427
C15A G68A	0.511
U60G U65A	0.95
C14G A43G	0.0978
G25U U79C	0.115
G17C G38A	0.0396
C21A C36G	0.0627
G80U A87U	0.235
G52C U79G	0.475
C24G C61A	0.112
C24A C62U	0.89
C7A G35C	0.0665
U46C G73U	0.151
G38A G82A	0.0482
U20C G55C	0.0791
A42U U79G	0.222
G11U C13U	0.0674
G34U U37A	0.158
C4U C61G	0.394
U65A G81U	0.353

Variant	self-cleavage
C26G G74U	0.359
G1A C18A	0.113
C33U C49G	0.855
G11A A83U	0.203
U37G G52C	0.178
U9A G55A	1.09
G39U A56G	0.659
C3A C61G	0.512
C24A G28C	0.0773
U23C A45C	0.573
C14G U69G	0.604
U60G C66A	0.831
G11U U23C	0.554
A43U C75G	0.0639
U9C G34A	0.208
U65C C85G	0.807
C18G C84U	0.0386
G1U U37G	0.31
C4A G55U	0.237
U23G G54A	0.928
G29U G31U	0.0804
C13G C61U	0.148
G34C U69A	0.0739
G5U C44U	0.369

Variant	self-cleavage
C21G C63A	0.106
A70C C84G	0.323
G10U G29A	0.0536
U47A C57U	0.944
U23C G40U	0.587
C33A A78C	0.0997
G29U A45U	0
U20G G53A	0.148
G73U G80U	0.124
C61A A77U	0.389
C64G A70U	0.978
G10U C49G	0.391
U37C U60G	0.906
C4G C24U	0.193
A43C C61U	0.434
C21U U79A	0.0573
C26U A51C	0.872
C7U C13U	0.332
C19U G55U	0.0573
A16U C33G	0.166
G39C C49U	0.166
C4U G54U	0.789
C26U U46C	0.897
C44A G76U	0.767

Variant	self-cleavage
A70C A71G	0.831
C18G U69G	0.128
U20G U72C	0
G2A C7G	0.017
G10C A83G	0.578
G38C G40U	0.0332
C7A C57G	0.571
U37C A87C	1.21
C22G U27A	0.208
C75U G80A	0.0573
U9C A51U	1.06
G6U C63A	0.594
G17A C48U	0.785
C32U G34U	0.215
G2C U23C	0
G11A A56G	0.346
G67A C84U	0.658
G25C U46A	0
C48G G53A	1.06
U9G A70G	0.831
C48A G73A	0.755
U65G G74A	0.3
G38C C86G	0.217
A8G A78G	0.128

Variant	self-cleavage
C66A C86G	1.12
U9A U72A	0.712
G59C G81C	0.261
A45U U60G	0.643
C41G G73A	0.712
G11U C15A	0.155
C32A A83C	0.0665
G59A A78C	0.282
C33U G82A	0.302
C41U U65G	0.976
G28C U65G	0.0665
G35C C57A	0.302
G39A C75A	0.0755
A70C A83U	0.475
G53U C85G	0.818
C30A G35C	0.0678
C14U C36U	0.96
C22G U27G	0.0978
G11A C64A	0.475
U23C U60C	0.858
C30A G35U	0.166
G67A G74A	0.403
C48G C64U	0.85
U27C G31U	0.161

Variant	self-cleavage
G34U C66A	0.0712
G10C G73U	0.177
G50U G52C	0.803
G25U A78U	0.0831
G28C C66A	0.122
A45G U60G	1.31
A8U A70G	0.969
U23G G67C	0.59
G10U C13U	0.122
U12G C64G	0.492
G5A G39U	0.101
G28C C84G	0.0332
C33G U79A	0.0755
U47A G82A	0.298
C41G A70C	0.475
G2A C58U	0.113
G68A C84G	0.475
A16U U79A	1.09
U69C	1.02
G52C C64U	0.964
U46G A87C	0.966
G53C G55C	1.05
A8U G74A	0.115
G54C C84U	0.665

Variant	self-cleavage
U9C G38A	0.123
C58G U69C	1.36
C15U C84G	0.635
C32U C61G	0.791
C26U G29U	0.136
G1U A51C	0.231
C19U A77G	0.253
C36G G67U	0.0361
A43C G80U	0.0825
G38C C58U	0.408
U23C C30A	0.369
U37G C49A	0.0573
C7U C24G	0.0739
G5A C63U	0.155
U23A G76U	0.941
C66A G81U	0.227
G34U C41U	0.131
C13G G68U	0.0978
U47G G59A	1.14
G53C U60G	1.01
A8C C49A	0.9
G28C C66U	0
C19G G73A	0.021
G67U U72C	0.53

Variant	self-cleavage
G10C C62U	0.989
G17C G40C	0
C7U C64A	0.923
C41U C49A	0.563
U23C A70U	0.917
C13G G40C	0.0396
C63A A77G	0.734
C14G U79C	0.173
A51C U79C	0.447
U37A G39U	0.122
G31C C44A	0
A56C A71U	1.11
C41A A56C	0.937
G2C G39A	0.121
C49G A71G	0.72
G31A A83G	0.228
A56G C63U	0.682
U27G U37G	0.391
U37C G40A	0.95
C3U C44G	0.354
C4G C18G	0.0282
C7G A71C	0.222
C15G A78G	0
G1C U20C	0.0723

Variant	self-cleavage
G5U U12G	0.356
C41A A71C	0.499
C26U C64U	0.819
U12G G67A	0.923
C49U A77C	0.469
C4A G38C	0
U12A G68C	0.0755
A45U G80A	0.205
C49U G67C	1.1
C41G G53A	0.485
U12G G73A	0.323
U60C C85A	0.712
C41U A83G	0.712
G10C G73A	0.396
G6C C49G	0.166
C15A U20C	0.135
C15U A87C	1.03
U9G G52A	0.712
G67U	0.999
G10A G17A	0.724
G25U G50A	0.151
G10C G68U	0.778
U37A A78U	0.0369
G35U C63U	0.513

Variant	self-cleavage
A42G U46C	0.369
A16C C18G	0
A8G U23C	0.612
G10U C84G	0.54
C26A G53C	0.759
C26G C57A	0.812
G2U A87U	0.0747
G39C A70G	0.151
C15A G17U	0.252
G5C C84U	0.119
G11A C26A	0.878
C7U G81U	0.187
U20G C61U	0.131
G50C A78C	0.188
C33U A83G	0.511
C3U A87G	0.752
U27G	0.848
G38A G73C	0.13
C18U C19U	0
G5U A45C	0.0875
G5U A43U	0.0978
U20G G52U	0.332
G10C U47A	0.853
C62A C66U	0.597

Variant	self-cleavage
C19A C24U	0.0674
C24A	0.767
U46G G73C	0.499
C22U G67U	0.548
C61G C66U	1.08
C7U C44G	0.464
U20C U72A	0.123
C14A A87C	0.643
U9C C58G	1.14
G29U C30A	0.155
G28A A45C	0.0744
U27G G74U	0.151
G80A G81A	0.185
G1U G67C	0.305
C15G G59U	0.375
U72A C86U	0.957
G40A A78C	0.233
A78U	0.316
A56U G81C	0.312
G29A	0.186
G11U C66G	0.397
G38U G68A	0.163
C62U A77C	0.491
C57G U79A	0.802

Variant	self-cleavage
C41G A42C	0.353
C30G U47C	0.0941
A51G G68C	0.831
C7A G28A	0.123
U23C C66A	0.982
G55U U79A	0.635
C15A G17A	0.302
A43U A83C	0.0923
G17U G40C	0.189
G5C G10U	0.0489
A16U G53U	0.985
A43C G53U	0.425
C57G C62A	0.957
C21A G80C	0.0496
C3U G35U	0.649
C3G U69C	0.653
G6C G31C	0.399
G5C A8G	0
G11C A78U	0.0437
U37C G55C	1.1
C58U C62G	0.812
A16U C41G	0.401
G39C U65C	0.374
G35C A70G	0.208

Variant	self-cleavage
U27A C62U	0.935
A51C U65C	0.942
G10U G59A	0.636
G11U A42U	0.0852
C3A C63A	0.492
U20C C22A	0.119
C61G U69C	0.96
A16C C30A	0.208
G6C C15G	0
U37A C49A	0.161
C24A U69G	0.623
C63U A77G	0.882
G1A C58A	0.0978
A16G G29A	0.252
C41A C57U	0.909
A42C A56U	0.332
G50C A87U	1.15
G10C C14G	0.312
A56G G73C	0.38
U60C G80C	0.125
C21G A45G	0.185
A45C U79C	0.0791
C18G U37G	0.0692
A8U C75G	0.142

Variant	self-cleavage
G34A U37A	0.0554
U37A G67C	0.128
C7U C49A	0.974
G35C U79G	0.214
G40U U65A	0.808
C48A C62A	0.878
U12A C26A	0.745
C15U A83C	0.65
G2C U20C	0.0536
G55A C63U	0.913
G53U C61G	0.899
C24A G53C	0.785
C3A G67A	0.462
G25A A70C	0.138
U9A C85A	0.902
C15A G55A	0.796
C13U G28U	0.0615
A16G G82C	0.172
G34A G82A	0.0671
C3G G54U	0.702
G1U A70U	0.381
G34A U72A	0.17
